B1: HDV Ribozyme (parent)
chain: GGCCGGCAUGGUCCCAGCCUCCUCGCUGGCGCCGGCUGGGCAACAUUCCGAGGGGACCGUCCCCUCGGUAAUGGCGAAUGGGACCCA

The data set covers variants of B1. Nature of the data set: self-cleavage, relative activity (ratio to wild type); higher = more cleavage; co-transcriptional.
Take G40A G55A: the self-cleavage was 0.882.
G40A G55U: the self-cleavage was determined as 1.17.
Under G39U G80U stands 0.119.
Under G39U G80A stands 0.151; under G39U A42G, 0.249; under G40C A45C, 0.0845.
Under G40A A87G stands 0.959; under G40C G52A, 0.247; under G40C G52U, 0.246.
For the variant G40C G52C, the self-cleavage was 0.0573.
As to G40A A51U, the self-cleavage was found to be 0.844.
The result for G40C U60G reads 0.271.
The result for G40C U60C reads 0.332; that for G39C A78U, 0.131.
In the case of G39C G81C, the self-cleavage is 0.089.
Under G40C C66U stands 0.249; under G39U A77U, 0.102.
Turning to G40U G53U, the self-cleavage turned out to be 0.75.
Under G40C U47A stands 0.0845; under G40C U47G, 0.173; under G40C G81C, 0.115.
With G40C G81A, the self-cleavage was 0.0755.
Under G40A G50C stands 0.92.
As to G40A G50U, the self-cleavage was determined as 0.842.
Under G39C C44G stands 0; under G39C C44A, 0.271.
As to G40C G74U, the self-cleavage was 0.202.
The result for G40U C41U reads 0.937; that for G39U A78C, 0.13.
Under G39U A78G stands 0.198.
As to G39U A78U, the self-cleavage was found to be 0.157.
Consider G40C C63A, for which the self-cleavage amounted to 0.475.
On to G40A G67A, for which the self-cleavage was 1.12.
The result for G40A G67U reads 0.919.
Under G40A G67C stands 0.992; under G40C A70C, 0.208.
Under G40C A70U stands 0.191; under G40C A70G, 0.0941; under G39C U65A, 0.0462.
In the case of G40A G80C, the self-cleavage came out at 0.161.
Under G40A G80U stands 0.217.
Under G40A G80A stands 0.427.
The result for G40A A77U reads 0.523; that for G40U A78C, 0.132; that for G40U A78U, 0.191.
Turning to G39C A83G, the self-cleavage worked out at 0.317.
G39C A83C: the self-cleavage is 0.243.
The result for G39C A83U reads 0.
G40C G80C: the self-cleavage stood at 0.0608.
Under G40C A83G stands 0.163; under G40C G53C, 0.17; under G40C G53A, 0.332.
Under G40C G53U stands 0.337; under G40U G55A, 0.722.
Take G40U G55C: the self-cleavage amounted to 0.937.
The result for G40A U72C reads 0.504.
The result for G40C C48G reads 0.35.
Under G40C C48A stands 0.424; under G39C C84G, 0.0462.
Consider G39C C84A, for which the self-cleavage was 0.19.
Consider G40U C66G, for which the self-cleavage worked out at 0.582.
Turning to G40U C66U, the self-cleavage is 0.753.
Under G40U C66A stands 0.702.
Under G40C C61A stands 0.256.
Take G39U C61A: the self-cleavage was determined as 0.589.
Under G39U C61G stands 0.464; under G39C A87G, 0.204; under G39C A87C, 0.323.
G40C G59U: the self-cleavage was determined as 0.326.
Under G40C G59A stands 0.179.
Under G39U A70U stands 0.831; under G40A C84U, 0.377.
Under G40A C84G stands 0.594; under G40C G50C, 0.225.
Turning to G40C G50U, the self-cleavage came to 0.269.
The result for G40C G50A reads 0.219; that for G40A A83C, 0.272; that for G40A A83U, 0.251.
Take G40A A83G: the self-cleavage stood at 0.573.
The result for G39C G73A reads 0.0339; that for G39U A45C, 0.196.
The result for G39U A45U reads 0.325.
Under G40A C86A stands 1.2.
Take G39C G76C: the self-cleavage was found to be 0.514.
In the case of G39U G73C, the self-cleavage was 0.3.
Under G40U A43U stands 0.146; under G40U A43C, 0.374; under G40C C86G, 0.222.
The result for G40C U72C reads 0.174; that for G40C U72A, 0.124.
For the variant G39U A51G, the self-cleavage is 0.818.
Under G39U A51C stands 0.849; under G39C G82C, 0.0997.
Under G39C C61A stands 0.192.
Take G39C G50C: the self-cleavage came to 0.104.
In the case of G39C G50U, the self-cleavage worked out at 0.345.
In the case of G40U C85U, the self-cleavage came to 0.911.
Under G40U C85A stands 0.427; under G40C U79A, 0.19; under G40C U79G, 0.138.
Under G39C A71U stands 0.229; under G40A A56G, 1.11; under G40A A56C, 0.878.
Under G40U A77G stands 0.462.
With G40C G67C, the self-cleavage was determined as 0.439.
On to G40C G67A, for which the self-cleavage worked out at 0.23.
With G40C C41A, the self-cleavage was found to be 0.706.
The result for G39U G68C reads 0.532.
For G39U G82A, the self-cleavage worked out at 0.27.
Under G40C A43C stands 0.123; under G40U C48A, 0.76; under G40U C48U, 0.628.
Turning to G40U C48G, the self-cleavage is 0.665.
The result for G39C U72C reads 0.155; that for G39C U72G, 0.128.
The result for G39C C48G reads 0.262; that for G39C C48U, 0.405.
The result for G39C A77U reads 0.121; that for G39C A77C, 0.0519; that for G39U C85A, 0.609.
For G40A A45U, the self-cleavage was found to be 0.563.
The result for G40A A45C reads 0.671; that for G40A C66U, 0.892; that for G40A C66G, 0.655.
The result for G39U G53A reads 0.789.
The result for G39U G53C reads 0.831; that for G40C A71U, 0.228; that for G40C A71G, 0.162.
With G40U C64G, the self-cleavage is 0.446.
The result for G40U C49G reads 0.888; that for G40U C58G, 0.598; that for G39C C57A, 0.141.
Under G40A C44U stands 0.582; under G40A C44A, 0.692.
The result for G40A C44G reads 0.302.
Turning to G40A U47A, the self-cleavage is 0.997.
As to G40A U47C, the self-cleavage stood at 1.03.
The result for G40A U47G reads 0.831; that for G39U U65G, 0.583.
Under G39U C63U stands 0.915.
The result for G40U G54C reads 0.513.
Consider G40C G68U, for which the self-cleavage was 0.245.
The result for G40C G68A reads 0.201; that for G40U G50A, 0.577; that for G40U G50C, 0.626.
Under G40A G81C stands 0.29.
The result for G40A G81U reads 0.342; that for G39C C66G, 0.185; that for G39C C66A, 0.361.
Take G39U A71C: the self-cleavage turned out to be 0.308.
The result for G39U A71G reads 0.383.
Under G39U U60G stands 0.502; under G40A G59C, 0.831.
The result for G40A G59U reads 0.987.
In the case of G39U C86A, the self-cleavage came out at 0.796.
Turning to G39U C86U, the self-cleavage is 0.858.
The result for G39U A56C reads 0.701.
The result for G39U A56U reads 0.819; that for G40A U46A, 0.437.
As for G40U G59C, the self-cleavage is 0.76.
As for G40U G59A, the self-cleavage was determined as 0.812.
As to G39U G59U, the self-cleavage came to 1.02.
Under G39U G59C stands 0.671; under G40U A71G, 0.46; under G40U A71U, 0.459.
Take G40U C63A: the self-cleavage worked out at 0.793.
Consider G40C A51U, for which the self-cleavage is 0.157.

Source of the values: the RNAGym collection of RNA variant scans (doi:10.7554/elife.80360).
